These results are taken from the DeepSol protein solubility set.

The series can be described thus: soluble on expression in E. coli; label from the status in PepcDB or PDB records.
On to “KSAKEMLEYCNSTGLSLSGMVMQNELALHSKKEIEEYFGHVWQTMQACIDRGMNTEGVLPGPLRVPRRASALRRMLVSSDKLSSDPMNVIDWVNMFALAVNEENAAGGRVVTAPTNGACGIVPAVLAYYDHFIESVSPDIYTRYFLAAGAIGALYKMNASISGAEVGCQGEVGVACSMAAAGLAELLGASPEQVCVAAEIGMEHNLGLTCDPVAGQVQVPCIERNAIASVKAINAARMAMRRTSAPRVSLDKVIETMYETGKDMNAKYRETSRGGLAIK”, for which the “soluble on expression in E. coli” value is recorded as “not soluble”.

Take “MRSAFRVIRTVREKHACTQCDAIVQAPAPSRPIERGIAGPGLLARVLTSKYAEHTPLYRQSEIYGRQGVELSRSLLSGWVDACCRQLSPLEEALHGYVLTDGKLHADDTPVPVLLPGNKKTKTGRLWTYVRDDRNAGSTLAPAVWFAYSPDRKGIHPQTHLAGFSGVLQADAYAGFNELYRDGRITEAACWAHARRKIHDVHVRTPSALTEEALKRIGELYAIEAEIRGMTAEQRLAERQLKTKPLLKSLESWLREKMKTLSRHSELAKAFAYALNQWPALTYYADDGWAEADNNIAENALRMVSLGRKNYLFFGSDHGGERGALLYSLIGTCKLNGVEPESYLRYVLDVIADWPINRVGELLPWRVALPTE”: the “soluble on expression in E. coli” value is listed as “not soluble”.

“MIHLVDYALLKPYLTVDEAVAGARKAEELGVAAYCVNPIYAPVVRPLLRKVKLCVVADFPFGALPTASRIALVSRLAEVADEIDVVAPIGLVKSRRWAEVRRDLISVVGAAGGRVVKVITEEPYLRDEERYTLYDIIAEAGAHFIKSSTGFAEEAYAARQGNPVHSTPERAAAIARYIKEKGYRLGVKMAGGIRTREQAKAIVDAIGWGEDPARVRLGTSTPEALL”: the “soluble on expression in E. coli” value is recorded as “soluble”.

For “GPGSMPPPAPPALEKKTAAGVEVDLTKMVLDTSSFLRASAQRPSMRYPSRASVSNSAFISAQEYDDLRARYSQAKRELLKVSDIQKDLDFARFELTRSQEEMKLLRASNHNLKNEVEEYVQRAEKEHKARMSLEAKMSAEGATRTEEIEFLKKTIDELRAENAKRLDYMTQQQEDEFQARLQSMREELAGAAEELARLTAEAAQAQKARELSESKLTAALTDLEKSRAVVDDCKARIDALQKECHALEQQHRDFVQQQERQNAAYLEEQKALNEERVHQVAESKNAAIAEMQEELHLWKEKTKTTAEELAAARHAASQLQDDVKQLTADRAKEVRRLAEEHRLALCELQLQMEAAIREARGSKTSLEEEAQSLRRQLAQVSTELSTVAGVLAQRERQLAKAEEELLRTKDRCVAAEQENAQLASDAQLNAEAADEAAARVERLMRQNSDMEEEFSKDLREAKDRIRTLEATLMQSKGELSALRKEQIKSADDGLAATRDLRAQAEALMEECTALKAQAGERRRLEEMARDYCQRFEAERTKVGTLEAELSAAVGRCTAVEAKLEELSRRVISQAVSRSPMQTLHPNATAASLSCHGKHRSVSSGQSYAPTGGSSMKRARTEDARVFAISGFDGNDVLLAVKQLPNVAIAECKSNMPVPSNLTHLITNGQLTIKLLTALVRGCWVLPESYVVDSLKEQTWLREEDYGFQHEEPPLLKKRIALTEAFMACKHYSTASLLLKEGGAILVDDPEQADILLCTNAEARSTQNGWNWEKMVEIIYPLKIQ”, the “soluble on expression in E. coli” value was “soluble”.

In the case of “MAHHHHHHMQLKERLQQWRERGLQGADVDPPVQRPRSFRPSCIVPRLYLGAAKDVQDVRTLRSRLLPDKLLMVVSTCDPSDPPRMELRQIAPTKGTAYTVKRLAVCSWEELEKRVVTSSFCCRLPRNEVMVATAEWLKEVLKTKSLPPVSLEECRDVQKGETDGKVSEVFEEGLYLKLCLPWKDESNFTVRPYFAVATALIHATMDGIQGAVVCYCMAGKSRSATLTCALLLYCCYDNVGRPKDEEECSAYKAVQAVVEFVREVRLCVSPNEGFIEQLRDYASDLLAV”, the “soluble on expression in E. coli” value was “not soluble”.

For “MGSDKIHHHHHHMKCLRESAIVAYAETKVMEKSDRDVWELDAEVLEALLERSGFEKGEIDGLVMAGFGLTAAGESFWAQVTADQLGLELDYCDQVHIGGCSATGSVARAAAAIDAGLCTTVLLLFADTGVAENNRGDRSFRREWADPYGVFGPPDAFGLLTRRYEHQYGLDYEMLGKLAVTQRAHAVLNENACEKLRKPITIDDYLNSRMIADPIRLLDCVMRCDAASGLLMTSRRRAREKGIDKFITPIGYGERTNFQGGENFVDVTRSGHEACGKRALAQAGLALKDVASFHPYDDFIIAIMLQLEAFGFCGRGQGVQFIREMNFSFDGDLPLNTGGGQISAGQAACCSHNLIEAIRQLMGEGGARQVRNTANALVSGIGWINYSRNWGTSSALVLAPNA”, the “soluble on expression in E. coli” value was “not soluble”.

On to “MKENPSFLKEQIITYLGNKRALLSFLNNGFKVAKKELGKDKFSFCDIFSGSGVVSRFAKAHSNYILANDLEDYSKLINECYLANKDKDLLQNIKKYYKNLIQNLDFQKGFISELYAPKDDDDIKKNERVFYTFKNALYLDTIRQKIENEIPKELRHFFIAPLIYEASVHSNTSGVFKGFYKGKDGIGKFGGEGQNALKRIKGEIELKMPIFSNFSCEFEVMQKDANMLAKELDFFDVVYLDPPYNQHPYSSNYFMLNLIANYKKPEEISKISGIPKDWNRSTFNKSKFAQDALFELINDLKARVILLSYNCEGFVKKEIFLKRLSTLGKCRILEQKYNTFRASRNLKNRNIHLHEQLYILVKN”, for which the “soluble on expression in E. coli” value was “not soluble”.

Consider “MADYDLAIIGGGLNGVSLARDAAGRGLRVILFEQGDLGGAASSATPRLIHGDLSVLERRGFWRVRRALAERRIWLRIAPHLVRPMRFVIPAHSEERPPWLLRAGLYVYDGLTNRGGLPPSATLDITHHPVGNALKRPFGTAFEYSDCVVDDSRLVVLTALDAAERGAAIHTGARCVRADRTDTWRLAVVDRGHRRTITARALANATGGWTSMVADTVLREPQPAMAAMQMSQIIVPRLFDSENVYVFQNNDGRLIFARPLERDFTLIGTVTHAFTGDPAIVAMPGADVSYLCEAASRYFRERVAPTDVVRTVSGVNLTLASARGRDGTALFHARRRKAPLITMFGGDVTTSRLRAERAVTRLTPFYPMSPPWTDGAVLPGGDFAWDRFDTEVDLARDRWRFLSEPEAQRLVAAYGSRLPAVLGEARTRDELGPTFGPELTGAEVRYLMSHEWARFPEDVLWRRSKLGLTMPKADRDGLAAFMADVNDRPEPVEQRPIGRLEHHHHHH”, for which the “soluble on expression in E. coli” value is recorded as “not soluble”.

Regarding “MGSDKIHHHHHHMPTLLMITPENSEINKFKAHQLNNFTQLTMPYLAGFVPEEYSIRLLDEYTEPILFEKVDLVAITVNTPNAPHVYSVSKRFRELGAWVALGGPHVTLNPEEAACHGDTIFVGEAEETWPEFLKDFLSGNMQKVYTSLQVPSLDGLPIPRRDLIVGHRFTSGAVFASRGCPHHCSYCSLKKIYHNKLRTRPVDEVIKDIGSMPNKYFVFWDDNFFADPVYTKALLKELARLNKRWAAQVTAYSCEDEELLSLAKSAGCLYLFLGLESFSEQGLRDANKNFNKIEEYGKVVNKLHRHGISIQAGIVFGFDSDTLDVFETTLKACNKIGVDGVTASILTPFPGTSIYEQYKKEGRLLDVDWDHYNGKTRVAYVPKRMNCKELLNGYNEFRGKFHSWRSIVKRISKSRVNIFYSLAMNYGYKRAYRNFTRLGIGERSDESLGQRMEQHLRNWPR”, the “soluble on expression in E. coli” value is “not soluble”.

Turning to “MAARKVRIQTTINSNVYEHYIKKLLPEYGQLNKLIEEAVKQLFEIRENELSKLDRLRAKMMREAGVIAIGFESAEKALKGEIEKVLSENEINFLLEWYYGRPIEKIAFEEAIEFMRTALIAMNWAVDAKVNLEGEETHIMVRSNLGRGLAELLCMVIKHFFERNYGVEVRFSVYPGGYTLSFRHVSTDAYPCSSVRE”, the “soluble on expression in E. coli” value is “not soluble”.

As to “MNQLLINKHEKFFNRCLIGLPSTAQSEDSNKLAIIYFCLHGLQLIQKFQFTNQELIYYRNFIINQFMIENNQIISFRSTHYFQKTNQKYDCPNLSSTLFALYNLLILKSPYHTIINRKKIMNFLCKCQVKDGINKGGFVPTLYYNEENGDYKQYGEPDLRVCYMALLIRHLMKYDDNNNNNNREDSNETDIDLISLQQFILDRININGGFSSTIMDESHLGFTFCAIASLKLLNYPLEKLKSTKEWLIHRQVDYPENLYPKDGNGDGNGNGDNYEYYRNIDIGGFNGRENKLSDTCYSWWCTGSLYNIDVNFIKLVDLNKAEDYLLNKTQNQLFGGFGRDPDSTPDPMHSYLALASLSLWNHEKFALQEINPILTITKESYQFFKEEIKY”, the “soluble on expression in E. coli” value is listed as “soluble”.

On to “MNIYKLIGRNLEITDAIRDYVEKKLARLDRYQDGELMAKVVLSLAGSPHVEKKARAEIQVDLPGGLVRVEEEDADLYAAIDRAVDRLETQVKRFRERRYVGKRHSYQGPPPPEVRDLEALRKPEEEEGPRIVRVKRFEMKPMDPEEAAFQMEALGHSFFVFRNAKTDEINVIYRRKDGNYGLIEPA”, for which the “soluble on expression in E. coli” value is “soluble”.

Take “MHHHHHHSSGRENLYFQGMTVREKTRLEKFRQLLSSQNTDLDELRKCSWPGVPREVRPITWRLLSGYLPANTERRKLTLQRKREEYFGFIEQYYDSRNEEHHQDTYRQIHIDIPRTNPLIPLFQQPLVQEIFERILFIWAIRHPASGYVQGINDLVTPFFVVFLSEYVEEDVENFDVTNLSQDMLRSIEADSFWCMSKLLDGIQDNYTFAQPGIQKKVKALEELVSRIDEQVHNHFRRYEVEYLQFAFRWMNNLLMRELPLRCTIRLWDTYQSEPEGFSHFHLYVCAAFLIKWRKEILDEEDFQGLLMLLQNLPTIHWGNEEIGLLLAEAYRLKYMFADAPNHYRR”: the “soluble on expression in E. coli” value is recorded as “soluble”.

Regarding “SLGQRPPIRRIVIDAAIPTKGITIVDVAKELYKVEGVKAVRITVDDVDVDVLGLAIVVEGVDIDYNELEDVLEKVGGVVHSVDEVVVGEYIPEAGRTA”, the “soluble on expression in E. coli” value is “soluble”.

For the sequence “MGHHHHHHSHQELASKRVDIQNKRFYLDVKQNAKGRFLKIAEVGAGGNKSRLTLSMSVAVEFRDYLGDFIEHYAQLGPSQPPDLAQAQDEPRRALKSEFLVRENRKYYMDLKENQRGRFLRIRQTVNRGPGLGSTQGQTIALPAQGLIEFRDALAKLIDDYGVEEEPAELPEGTSLTVDNKRFFFDVGSNKYGVFMRVSEVKPTYRNSITVPYKVWAKFGHTFCKYSEEMKKIQEK”, the “soluble on expression in E. coli” value is given as “not soluble”.

As for “MGSDKIHHHHHHAVFVAVGIRMITSGDGRTNRYDVEAGNNTYDNAVIENSKISEKNKIQNNQSMLDDIMNSTQYPKQLKDLALKNEEALEFVFDYPAEHVKEHTIDLTEEASMDSVPLFVQWDKRWGYEKYSGNFFAASGCGPTTLSMVVVYLTHNREASPIAVAKYSKEAGYSVDGSGSSWTLISEGCMHYGVKAKAVALDESRMKAELDEGHPIVVNVGPGDFTDTGHFMVITGYDDEGFSINDPNSIEKSGKRWLFKNISSQIRAVWSMYV”, the “soluble on expression in E. coli” value was “not soluble”.

Take “AWPEGQALGPGMPLPEPSEQEGESVKAGQEPSPKPGTDVIPAAPRKPREFSKLVLLTASDQDEDGVGSKPQEVHCVLSLEMAGPATLASTLQILPVEEQGGVVQPALEMPEQKCSKLDAAPQSLEFLRTPFGGRLLVLESFLYKQEKAVGDKVYWKCRQHAELGCRGRAITRGLRATVMRGHCHAPDEQGLEARRQREKLPSLALPEGLGEPQGPEGPGGRVEEPLEGVGPWQCPEEPEPTPGLVLSKPALEEEEAPRALSLLSLPPKKRSILGLGQARPLEFLRTCYGGSFLVHESFLYKREKAVGDKVYWTCRDHALHGCRSRAITQGQRVTVMRGHCHQPDMEGLEARRQQEKAVETLQAGQDGPGSQVDTLLRGVDSLLYRRGPGPLTLTRPRPRKRAKVEDQELPTQPEAPDEHQDMDADPGGPEFLKTPLGGSFLVYESFLYRREKAAGEKVYWTCRDQARMGCRSRAITQGRRVTVMRGHCHPPDLGGLEALRQREKRPNTAQRGSPGGPEFLKTPLGGSFLVYESFLYRREKAAGEKVYWTCRDQARMGCRSRAITQGRRVMVMRRHCHPPDLGGLEALRQREHFPNLAQWDSPDPLRPLEFLRTSLGGRFLVHESFLYRKEKAAGEKVYWMCRDQARLGCRSRAITQGHRIMVMRSHCHQPDLAGLEALRQRERLPTTAQQEDPEKIQVQLCFKTCSPESQQIYGDIKDVRLDGESQ”: the “soluble on expression in E. coli” value was “soluble”.
